Reference: patent US20160113911A1, “METHODS AND COMPOSITIONS FOR THE TREATMENT OF CANCER” (THE GENERAL HOSPITAL CORPORATION, priority 2013, published 2016)

Columns and labels:
H3K36me3 = experiment: H3K36 demethylase activity of KDM4A variants in transfected cells (immunofluorescence); type: cell-based; design: key: + indicates active; − indicates inactive; +/− indicates partial acitivty; conditions: KDM4A mutations
Procedure: The indicated NHF-tagged KDM4A deletion constructs were transfected into RPE cells grown on coverslips in 10 cm dishes using X-tremeGENE 9™ DNA transfection reagent (Roche). H3K36me3 and subcellular localization were assayed by examining transfected cells (positive for HA staining; HA.11 Covance) following fixation in 3.7% PFA in PBS (Whetstine et al., 2006).
All immunofluorescence experiments were performed as in (Black et al., 2013). For the localization experiment a minimum of 50 cells were blinded and scored. For the catalytic activity, cells overexpressing a high level of KDM4A WT or SNP-A482 were analyzed in a non quantitative manner.

H3K9me3 = experiment: H3K9 demethylase activity of KDM4 variants in transfected cells; type: cell-based; design: key: + indicates active; − indicates inactive; +/− indicates partial acitivty; conditions: KDM4A mutations

Molecule | H3k36 Demethylase Activity (H3K36me3) | H3k9 Demethylase Activity (H3K9me3)
2A-R218W: KDM4A mutation (protein) MASESETLNPSARIMTFYPTMEEFRNFSRYIAYIESQGAHRAGLAKVVPPKEWKPRASYDDIDDLVIPAPIQQLVTGQSGLFTQYNIQKKAMTVREFRKIANSDKYCTPRYSEFEELERKYWKNLTFNPPIYGADVNGTLYEKHVDEWNIGRLRTILDLVEKESGITIEGVNTPYLYFGMWKTSFAWHTEDMDLYSINYLHFGEPKSWYSVPPEHGKWLERLAKGFFPGSAQSCEAFLRHKMTLISPLMLKKYGIPFDKVTQEAGEFMITFPYGYHAGFNHGFNCAESTNFATRRWIEYGKQAVLCSCRKDMVKISMDVFVRKFQPERYKLWKAGKDNTVIDHTLPTPEAAEFLKESELPPRAGNEEECPEEDMEGVEDGEEGDLKTSLAKHRIGTKRHRVCLEIPQEVSQSELFPKEDLSSEQYEMTECPAALAPVRPTHSSVRQVEDGLTFPDYSDSTEVKFEELKNVKLEEEDEEEEQAAAALDLSVNPASVGGRLVFSGSKKKSSSSLGSGSSRDSISSDSETSEPLSCRAQGQTGVLTVHSYAKGDGRVTVGEPCTRKKGSAARSFSERELAEVADEYMFSLEENKKSKGRRQPLSKLPRHHPLVLQECVSDDETSEQLTPEEEAEETEAWAKPLSQLWQNRPPNFEAEKEFNETMAQQAPHCAVCMIFQTYHQVEFGGFNQNCGNASDLAPQKQRTKPLIPEMCFTSTGCSTDINLSTPYLEEDGTSILVSCKKCSVRVHASCYGVPPAKASEDWMCSRCSANALEEDCCLCSLRGGALQRANDDRWVHVSCAVAILEARFVNIAERSPVDVSKIPLPRFKLKCIFCKKRRKRTAGCCVQCSHGRCPTAFHVSCAQAAGVMMQPDDWPFVVFITCFRHKIPNLERAKGALQSITAGQKVISKHKNGRFYQCEVVRLTTETFYEVNFDDGSFSDNLYPEDIVSQDCLQFGPPAEGEVVQVRWTDGQVYGAKFVASHPIQMYQVEFEDGSQLVVKRDDVYTLDEELPKRVKSRLSVASDMRFNEIFTEKEVKQEKKRQRVINSRYREDYIEPALYRAIME | − | +
2A-R239H: KDM4A mutation (protein) MASESETLNPSARIMTFYPTMEEFRNFSRYIAYIESQGAHRAGLAKVVPPKEWKPRASYDDIDDLVIPAPIQQLVTGQSGLFTQYNIQKKAMTVREFRKIANSDKYCTPRYSEFEELERKYWKNLTFNPPIYGADVNGTLYEKHVDEWNIGRLRTILDLVEKESGITIEGVNTPYLYFGMWKTSFAWHTEDMDLYSINYLHFGEPKSWYSVPPEHGKRLERLAKGFFPGSAQSCEAFLHHKMTLISPLMLKKYGIPFDKVTQEAGEFMITFPYGYHAGFNHGFNCAESTNFATRRWIEYGKQAVLCSCRKDMVKISMDVFVRKFQPERYKLWKAGKDNTVIDHTLPTPEAAEFLKESELPPRAGNEEECPEEDMEGVEDGEEGDLKTSLAKHRIGTKRHRVCLEIPQEVSQSELFPKEDLSSEQYEMTECPAALAPVRPTHSSVRQVEDGLTFPDYSDSTEVKFEELKNVKLEEEDEEEEQAAAALDLSVNPASVGGRLVFSGSKKKSSSSLGSGSSRDSISSDSETSEPLSCRAQGQTGVLTVHSYAKGDGRVTVGEPCTRKKGSAARSFSERELAEVADEYMFSLEENKKSKGRRQPLSKLPRHHPLVLQECVSDDETSEQLTPEEEAEETEAWAKPLSQLWQNRPPNFEAEKEFNETMAQQAPHCAVCMIFQTYHQVEFGGFNQNCGNASDLAPQKQRTKPLIPEMCFTSTGCSTDINLSTPYLEEDGTSILVSCKKCSVRVHASCYGVPPAKASEDWMCSRCSANALEEDCCLCSLRGGALQRANDDRWVHVSCAVAILEARFVNIAERSPVDVSKIPLPRFKLKCIFCKKRRKRTAGCCVQCSHGRCPTAFHVSCAQAAGVMMQPDDWPFVVFITCFRHKIPNLERAKGALQSITAGQKVISKHKNGRFYQCEVVRLTTETFYEVNFDDGSFSDNLYPEDIVSQDCLQFGPPAEGEVVQVRWTDGQVYGAKFVASHPIQMYQVEFEDGSQLVVKRDDVYTLDEELPKRVKSRLSVASDMRFNEIFTEKEVKQEKKRQRVINSRYREDYIEPALYRAIME | +/− | +/−
2A-G225C: KDM4A mutation (protein) MASESETLNPSARIMTFYPTMEEFRNFSRYIAYIESQGAHRAGLAKVVPPKEWKPRASYDDIDDLVIPAPIQQLVTGQSGLFTQYNIQKKAMTVREFRKIANSDKYCTPRYSEFEELERKYWKNLTFNPPIYGADVNGTLYEKHVDEWNIGRLRTILDLVEKESGITIEGVNTPYLYFGMWKTSFAWHTEDMDLYSINYLHFGEPKSWYSVPPEHGKRLERLAKCFFPGSAQSCEAFLRHKMTLISPLMLKKYGIPFDKVTQEAGEFMITFPYGYHAGFNHGFNCAESTNFATRRWIEYGKQAVLCSCRKDMVKISMDVFVRKFQPERYKLWKAGKDNTVIDHTLPTPEAAEFLKESELPPRAGNEEECPEEDMEGVEDGEEGDLKTSLAKHRIGTKRHRVCLEIPQEVSQSELFPKEDLSSEQYEMTECPAALAPVRPTHSSVRQVEDGLTFPDYSDSTEVKFEELKNVKLEEEDEEEEQAAAALDLSVNPASVGGRLVFSGSKKKSSSSLGSGSSRDSISSDSETSEPLSCRAQGQTGVLTVHSYAKGDGRVTVGEPCTRKKGSAARSFSERELAEVADEYMFSLEENKKSKGRRQPLSKLPRHHPLVLQECVSDDETSEQLTPEEEAEETEAWAKPLSQLWQNRPPNFEAEKEFNETMAQQAPHCAVCMIFQTYHQVEFGGFNQNCGNASDLAPQKQRTKPLIPEMCFTSTGCSTDINLSTPYLEEDGTSILVSCKKCSVRVHASCYGVPPAKASEDWMCSRCSANALEEDCCLCSLRGGALQRANDDRWVHVSCAVAILEARFVNIAERSPVDVSKIPLPRFKLKCIFCKKRRKRTAGCCVQCSHGRCPTAFHVSCAQAAGVMMQPDDWPFVVFITCFRHKIPNLERAKGALQSITAGQKVISKHKNGRFYQCEVVRLTTETFYEVNFDDGSFSDNLYPEDIVSQDCLQFGPPAEGEVVQVRWTDGQVYGAKFVASHPIQMYQVEFEDGSQLVVKRDDVYTLDEELPKRVKSRLSVASDMRFNEIFTEKEVKQEKKRQRVINSRYREDYIEPALYRAIME | +/− | +
2A-A236V: KDM4A mutation (protein) MASESETLNPSARIMTFYPTMEEFRNFSRYIAYIESQGAHRAGLAKVVPPKEWKPRASYDDIDDLVIPAPIQQLVTGQSGLFTQYNIQKKAMTVREFRKIANSDKYCTPRYSEFEELERKYWKNLTFNPPIYGADVNGTLYEKHVDEWNIGRLRTILDLVEKESGITIEGVNTPYLYFGMWKTSFAWHTEDMDLYSINYLHFGEPKSWYSVPPEHGKRLERLAKGFFPGSAQSCEVFLRHKMTLISPLMLKKYGIPFDKVTQEAGEFMITFPYGYHAGFNHGFNCAESTNFATRRWIEYGKQAVLCSCRKDMVKISMDVFVRKFQPERYKLWKAGKDNTVIDHTLPTPEAAEFLKESELPPRAGNEEECPEEDMEGVEDGEEGDLKTSLAKHRIGTKRHRVCLEIPQEVSQSELFPKEDLSSEQYEMTECPAALAPVRPTHSSVRQVEDGLTFPDYSDSTEVKFEELKNVKLEEEDEEEEQAAAALDLSVNPASVGGRLVFSGSKKKSSSSLGSGSSRDSISSDSETSEPLSCRAQGQTGVLTVHSYAKGDGRVTVGEPCTRKKGSAARSFSERELAEVADEYMFSLEENKKSKGRRQPLSKLPRHHPLVLQECVSDDETSEQLTPEEEAEETEAWAKPLSQLWQNRPPNFEAEKEFNETMAQQAPHCAVCMIFQTYHQVEFGGFNQNCGNASDLAPQKQRTKPLIPEMCFTSTGCSTDINLSTPYLEEDGTSILVSCKKCSVRVHASCYGVPPAKASEDWMCSRCSANALEEDCCLCSLRGGALQRANDDRWVHVSCAVAILEARFVNIAERSPVDVSKIPLPRFKLKCIFCKKRRKRTAGCCVQCSHGRCPTAFHVSCAQAAGVMMQPDDWPFVVFITCFRHKIPNLERAKGALQSITAGQKVISKHKNGRFYQCEVVRLTTETFYEVNFDDGSFSDNLYPEDIVSQDCLQFGPPAEGEVVQVRWTDGQVYGAKFVASHPIQMYQVEFEDGSQLVVKRDDVYTLDEELPKRVKSRLSVASDMRFNEIFTEKEVKQEKKRQRVINSRYREDYIEPALYRAIME | + | +
